According to patent US20190367612A1 (Daiichi Sankyo, published 2019):

target: T1, human GPRC5D (human, UniProt Q9NZD1 1-345); test: flow cytometry on A4/Fuk cells (endogenous human GPRC5D), Penta-His Alexa Fluor 488 detection, rMFI = MFI minus sample without antibody
T1 construct: whole, on cells; also called hGPRC5D; G-protein coupled receptor family C group 5 member D
Procedure: Lymphoma cell line A4/Fuk cells (JCRB Cell Bank) were adjusted to an appropriate concentration with PBS containing 5% FBS. LIVE/DEAD Fixable Near-IR Dead Cell Stain Kit was added to the cells, which were then left standing at 4° C. for 30 minutes. The cells were washed twice with PBS containing 5% FBS, then adjusted to a concentration of 1×10⁶ cells/mL with PBS containing 5% FBS, inoculated in an amount of 100 μL/well to a 96-well U-bottomed microplate, and centrifuged to remove a supernatant. Each anti-GPRC5D-anti-CD3 bispecific molecule (C2037-C3E7034 to C3022-C3E7036 prepared in Example 12) diluted with PBS containing 5% FBS were added thereto in an amount of 100 μL/well, and the plate was left standing at 4° C. for 60 minutes. The cells were washed twice with PBS containing 5% FBS. Then, Penta-His Alexa Fluor 488 diluted with PBS containing 5% FBS was added thereto in an amount of 30 μL/well, and the plate was left standing at 4° C. for 30 minutes. The cells were washed twice with PBS containing 5% FBS and then resuspended in PBS containing 5% FBS, followed by detection using a flow cytometer (FACSCanto™ II). The data was analyzed using Flowjo. The mean fluorescence intensity (MFI) of Alexa Fluor 488 in a fraction free from dead cells was calculated. The MFI value of the antibody-unsupplemented sample was subtracted from the MFI value of the antibody-supplemented sample to calculate a relative value of MFI (rMFI).

T1 sequence (Q9NZD1 whole entry): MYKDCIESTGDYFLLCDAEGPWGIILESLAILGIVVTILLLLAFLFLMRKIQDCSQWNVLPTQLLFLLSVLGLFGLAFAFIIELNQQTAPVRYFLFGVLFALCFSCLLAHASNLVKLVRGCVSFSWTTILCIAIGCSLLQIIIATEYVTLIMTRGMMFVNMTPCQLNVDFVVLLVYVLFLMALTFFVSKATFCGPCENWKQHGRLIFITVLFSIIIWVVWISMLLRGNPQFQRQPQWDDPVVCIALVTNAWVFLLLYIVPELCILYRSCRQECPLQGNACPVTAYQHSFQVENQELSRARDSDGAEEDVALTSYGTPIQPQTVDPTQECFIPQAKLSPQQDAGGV

Row | Binder | binding result
1 | anti-GPRC5D-anti-CD3 bispecific molecule C3048-C3E7035 (bispecific antibody, Tandem scFv) scFv: GQVQLVQSGAEVKKPGSSVKVSCKASGGTFSRYAISWVRQAPGQGLEWMGGIIPIFGTANYAQKFQGRVTITADQSTRTAYMDLGRLRSEDTAVYYCALEGFRDSLKRNPFDIWGQGTMVTVSSGGGGSGGGGSGGGGSQSVVTQPPSVSAAPGQKVTISCSGGTTNIGSNYVSWYQQLPGTAPKFLMYENNKRPSGIPDRFSGSKSGTSATLAITGLQTGDEATYYCSTWDSSLNTGLFGGGTKLTVLGGGGSEVQLVESGGGLVQPGGSLRLSCAASGVTFNYYGMSWIRQAPGKGLEWVASITNSGGRIYYPDSVKGRFTISRENTQKTLYLQMNSLRAEDTAVYYCTLDGRDGWVAYWGQGTLVTVSSGGGGSGGGGSGGGGSMAQAVLTQPSSVSGVPGQRVTISCKRNTGNIGSNYVNWYQQLPGTAPKLLIYRDDKRPSGVPDRFSGSKSGTSASLAITGFQAEDEADYYCQSYSSGFIFGGGTKLTVLGAAAGAGGDYKDDDDKGAAAHHHHHH | binds
2 | anti-GPRC5D-anti-CD3 bispecific molecule C3022-C3E7035 (bispecific antibody, Tandem scFv) scFv: GQVQLVQSGAEVKKPGASVKVSCKASGYTFTGYYMHWVRQAPGQGLEWMGRINPNSGGTNYAQKFQGRVTMTRDTSISTAYMELSGLRSDDTAVYYCASGSVRHPWGQGTLVTVSSGGGGSGGGGSGGGGSQPVLTQPPSASGTPGQRVTISCSGSRSNIGGNIVSWYQQFPGTAPRLLTYADNQRPSGVPDRFSGSKSGTSASLAISGLQSEDEADYYCAAWDDSLNGVVFGGGTKLTVLGGGGSEVQLVESGGGLVQPGGSLRLSCAASGVTFNYYGMSWIRQAPGKGLEWVASITNSGGRIYYPDSVKGRFTISRENTQKTLYLQMNSLRAEDTAVYYCTLDGRDGWVAYWGQGTLVTVSSGGGGSGGGGSGGGGSMAQAVLTQPSSVSGVPGQRVTISCKRNTGNIGSNYVNWYQQLPGTAPKLLIYRDDKRPSGVPDRFSGSKSGTSASLAITGFQAEDEADYYCQSYSSGFIFGGGTKLTVLGAAAGAGGDYKDDDDKGAAAHHHHHH | binds

target: T1, human GPRC5D; test: flow cytometry on KHM-1B cells (human GPRC5D), culture supernatant, PE anti-human IgG Fc, rMFI over human IgG isotype control
Procedure: Human multiple myeloma cell line KHM-1B cells expressing GPRC5D were adjusted to a concentration of 2×10⁶ cells/mL with PBS containing 5% FBS, inoculated in an amount of 100 μL/well to a 96-well U-bottomed microplate, and centrifuged to remove a supernatant. The culture supernatant of each humanized anti-GPRC5D antibody obtained in Example 8)-3-1 or Human IgG isotype control antibody (Calbiochem/Merck Millipore Corp.) adjusted to 14 ng/mL to 30 μg/mL was added thereto in an amount of 100 μL/well, and the plate was left standing at 4° C. for 1 hour. The cells were washed twice with PBS containing 5% FBS. Then, R-Phycoerythrin AffiniPure F(ab′)2 Fragment Goat Anti-Human IgG, Fcγ Fragment Specific (Jackson ImmunoResearch Laboratories, Inc.) diluted 100-fold with PBS containing 5% FBS was added thereto in an amount of 100 μL/well, and the plate was left standing at 4° C. for 1 hour. The cells were washed twice with PBS containing 5% FBS and then resuspended in PBS containing 5% FBS, followed by detection using a flow cytometer (FACSCanto™ II; Becton, Dickinson and Company). The data was analyzed using Flowjo (Tree Star, Inc.). The PE fluorescence intensity of the cell fraction was plotted to a histogram, and the mean fluorescence intensity (MFI) was calculated. The MFI value of the control antibody was subtracted from the MFI value of the GPRC5D antibody to calculate a relative value of MFI (rMFI).

Row | Binder | binding result
3 | humanized anti-GPRC5D antibody h2B1_H2/L3 (antibody, human IgG1, kappa, V domains shown, Human IgG1 / kappa) VH: QVQLVESGGGLVKPSQTLSLTCTFSGFSLNTYDMGVGWIRQPPGKGLEWIGNIWWDDDKYYNPSLKSRVTISKDTSNNQASLKLSSVTAADTAVYYCARIETVRVSRKGFAHWGQGTLVTVSS VL: DTVMTQSPDSLAVSLGERATINCKASQSVGINVDWYQQKPGQPPKLLIYGASNRHTGVPDRFSGSGFGRDFTLTISSLQAEDVAVYYCLQHGSIPPTFGQGTKVEIKR | binds
4 | humanized anti-GPRC5D antibody h2B1_H1/L1 (antibody, human IgG1, kappa, V domains shown, Human IgG1 / kappa) VH: QVQLVESGGGLVKPSQTLSLTCTFSGFSLNTYDMGVGWIRQPPGKGLEWIGNIWWDDDKYYNPSLKSRVTISVDTSKNQASLKLSSVTAADTAVYYCARIETVRVSRKGFAHWGQGTLVTVSS VL: DTVMTQSPDSLAVSLGERATINCKASQSVGINVDWYQQKPGQPPKLLIYGASNRHTGVPDRFSGSGSGRDFTLTISSLQAEDVAVYYCLQHGSIPPTFGQGTKVEIKR | binds
5 | humanized anti-GPRC5D antibody h2B1_H2/L2 (antibody, human IgG1, kappa, V domains shown, Human IgG1 / kappa) VH: QVQLVESGGGLVKPSQTLSLTCTFSGFSLNTYDMGVGWIRQPPGKGLEWIGNIWWDDDKYYNPSLKSRVTISKDTSNNQASLKLSSVTAADTAVYYCARIETVRVSRKGFAHWGQGTLVTVSS VL: DTVMTQSPDSLAVSLGERATINCKASQSVGINVDWYQQKPGQPPKLLIYGASNRHTGVPDRFSGSGFGTDFTLTISSLQAEDVAVYYCLQHGSIPPTFGQGTKVEIKR | binds
6 | humanized anti-GPRC5D antibody h2B1_H2/L4 (antibody, human IgG1, kappa, V domains shown, Human IgG1 / kappa) VH: QVQLVESGGGLVKPSQTLSLTCTFSGFSLNTYDMGVGWIRQPPGKGLEWIGNIWWDDDKYYNPSLKSRVTISKDTSNNQASLKLSSVTAADTAVYYCARIETVRVSRKGFAHWGQGTLVTVSS VL: DTVMTQSPDSLAVSLGERATINCKASQSVGINVDWYQQKPGQSPKLLIYGASNRHTGVPDRFSGSGFGRDFTLTISSLQAEDVAVYYCLQHGSIPPTFGQGTKVEIKR | binds
7 | humanized anti-GPRC5D antibody h2B1_H3/L3 (antibody, human IgG1, kappa, V domains shown, Human IgG1 / kappa) VH: QVQLVESGGGLVKPSQTLSLTCTFSGFSLNTYDMGVGWIRQPPGKGLEWIANIWWDDDKYYNPSLKSRVTISKDTSNNQASLKLSSVTAADTAVYYCARIETVRVSRKGFAHWGQGTLVTVSS VL: DTVMTQSPDSLAVSLGERATINCKASQSVGINVDWYQQKPGQPPKLLIYGASNRHTGVPDRFSGSGFGRDFTLTISSLQAEDVAVYYCLQHGSIPPTFGQGTKVEIKR | binds
8 | humanized anti-GPRC5D antibody h2B1_H3/L4 (antibody, human IgG1, kappa, V domains shown, Human IgG1 / kappa) VH: QVQLVESGGGLVKPSQTLSLTCTFSGFSLNTYDMGVGWIRQPPGKGLEWIANIWWDDDKYYNPSLKSRVTISKDTSNNQASLKLSSVTAADTAVYYCARIETVRVSRKGFAHWGQGTLVTVSS VL: DTVMTQSPDSLAVSLGERATINCKASQSVGINVDWYQQKPGQSPKLLIYGASNRHTGVPDRFSGSGFGRDFTLTISSLQAEDVAVYYCLQHGSIPPTFGQGTKVEIKR | binds
9 | humanized anti-GPRC5D antibody h2B1_H2/L5 (antibody, human IgG1, kappa, V domains shown, Human IgG1 / kappa) VH: QVQLVESGGGLVKPSQTLSLTCTFSGFSLNTYDMGVGWIRQPPGKGLEWIGNIWWDDDKYYNPSLKSRVTISKDTSNNQASLKLSSVTAADTAVYYCARIETVRVSRKGFAHWGQGTLVTVSS VL: ATRMTQSPSSFSASTGDRVTITCKASQSVGINVDWYQQKPGKSPKLLIYGASNRHTGVPSRFSGSGFGRDFTLTISSLQSEDFATYYCLQHGSIPPTFGGGTKVEIKR | binds
10 | humanized anti-GPRC5D antibody h2B1_H3/L5 (antibody, human IgG1, kappa, V domains shown, Human IgG1 / kappa) VH: QVQLVESGGGLVKPSQTLSLTCTFSGFSLNTYDMGVGWIRQPPGKGLEWIANIWWDDDKYYNPSLKSRVTISKDTSNNQASLKLSSVTAADTAVYYCARIETVRVSRKGFAHWGQGTLVTVSS VL: ATRMTQSPSSFSASTGDRVTITCKASQSVGINVDWYQQKPGKSPKLLIYGASNRHTGVPSRFSGSGFGRDFTLTISSLQSEDFATYYCLQHGSIPPTFGGGTKVEIKR | binds
11 | humanized anti-GPRC5D antibody h2B1_H4/L3 (antibody, human IgG1, kappa, V domains shown, Human IgG1 / kappa) VH: QVTLKESGPALVKPTQTLTLTCTFSGFSLNTYDMGVGWIRQPPGKGLEWLANIWWDDDKYYSPSLKSRLTITKDTSNNQAVLTMTNMDPVDTATYYCARIETVRVSRKGFAHWGQGTLVTVSS VL: DTVMTQSPDSLAVSLGERATINCKASQSVGINVDWYQQKPGQPPKLLIYGASNRHTGVPDRFSGSGFGRDFTLTISSLQAEDVAVYYCLQHGSIPPTFGQGTKVEIKR | binds
12 | humanized anti-GPRC5D antibody h2B1_H4/L1 (antibody, human IgG1, kappa, V domains shown, Human IgG1 / kappa) VH: QVTLKESGPALVKPTQTLTLTCTFSGFSLNTYDMGVGWIRQPPGKGLEWLANIWWDDDKYYSPSLKSRLTITKDTSNNQAVLTMTNMDPVDTATYYCARIETVRVSRKGFAHWGQGTLVTVSS VL: DTVMTQSPDSLAVSLGERATINCKASQSVGINVDWYQQKPGQPPKLLIYGASNRHTGVPDRFSGSGSGRDFTLTISSLQAEDVAVYYCLQHGSIPPTFGQGTKVEIKR | binds
13 | humanized anti-GPRC5D antibody h2B1_H4/L4 (antibody, human IgG1, kappa, V domains shown, Human IgG1 / kappa) VH: QVTLKESGPALVKPTQTLTLTCTFSGFSLNTYDMGVGWIRQPPGKGLEWLANIWWDDDKYYSPSLKSRLTITKDTSNNQAVLTMTNMDPVDTATYYCARIETVRVSRKGFAHWGQGTLVTVSS VL: DTVMTQSPDSLAVSLGERATINCKASQSVGINVDWYQQKPGQSPKLLIYGASNRHTGVPDRFSGSGFGRDFTLTISSLQAEDVAVYYCLQHGSIPPTFGQGTKVEIKR | binds
14 | humanized anti-GPRC5D antibody h2B1_H4/L5 (antibody, human IgG1, kappa, V domains shown, Human IgG1 / kappa) VH: QVTLKESGPALVKPTQTLTLTCTFSGFSLNTYDMGVGWIRQPPGKGLEWLANIWWDDDKYYSPSLKSRLTITKDTSNNQAVLTMTNMDPVDTATYYCARIETVRVSRKGFAHWGQGTLVTVSS VL: ATRMTQSPSSFSASTGDRVTITCKASQSVGINVDWYQQKPGKSPKLLIYGASNRHTGVPSRFSGSGFGRDFTLTISSLQSEDFATYYCLQHGSIPPTFGGGTKVEIKR | binds
